# From publication PMC7610479
# Experiments:
# [1] = target: Survival Motor Neuron (SMN) protein, recombinant (UniProt Q16637); assay: SPR
# [2] = target: recombinant SMN (Survival Motor Neuron protein) (UniProt Q16637); assay: SPR
Substance,Kd [1] [pM],Kd [2] [pM],koff [2] [s⁻¹],kon [2] [M⁻¹ s⁻¹]
purified SMN-free 80S ribosomes from NSC-34 cells depleted from SMN (from UniProt P61255 1-145) (complex),10,,,
purified SMN-free 80S ribosomes from NSC-34 cells depleted of SMN (complex),,9.8,9.4e-05,9.7e+06
